Positions count from the first letter of the chain named. Names may count otherwise.
B1: hRS1-Reg(S20E) (protein, not shown: small tags and cut ends)
chain: SSGQEPDVGNPMSLARSVSASVCPIKPSDSDRIEPKAVKALKASAEFQLNSEKKEHLSLQDLSDHASSADHAPTDQSPAMPMQ
B2: hRS1-Reg(S20A) (protein, not shown: small tags and cut ends)
chain: B1 chain with E5A

Target: ornithine decarboxylase (ODC) present in Xenopus laevis oocytes
Assay: cell-based or functional assay

Row | IC50 for down-regulation of hSGLT1 at low intracellular AMG, against hRS1-Reg wildtype | affinity for down-regulation of hSGLT1 in the presence of intracellular glucose, against hRS1-Reg wildtype | change of IC50 for down-regulation of hSGLT1 at high intracellular AMG (~250 µM) against low AMG | increase of affinity for down-regulation of hSGLT1 against hRS1-Reg wildtype or hRS1-Reg(S20A) | decrease of affinity for down-regulation of hSGLT1 at high intracellular glucose | Binder
1 | 6300 times | 1.5e+07 times | 300 fold | 4000 to 6000 fold |  | B1
2 |  |  |  |  | 7 to 8 fold | B2
